From the nanobody polyreactivity screen of Harvey et al. (2022)

Experiment: yeast display, Sf9 membrane polyspecificity reagent, FACS + sequencing; frameworks hold sequencing errors
Method in brief: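 A nanobody's polyreactivity label depends on the gate it was sorted from. Yeast display cells were stained with 10% biotinylated, detergent-solubilized Sf9 membrane reagent for 1 hour at 4 °C, enriched on streptavidin microbeads and sorted by FACS. The low and high (top ~1%) gates were set on anti-HA fluorescence for expression and streptavidin fluorescence for reagent binding.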

| Sequence | polyreactivity (PSR sort gate) |
| --- | --- |
| QVQLVESGGGLVQAGGSLRLSCAASGRWLYAMGWYIQAHGKERELVAAISRSGGSTNYADSVKGRFTISRDNAKNTVYLQMNSLKPEDTAVYYCAATPYSYYTYQPEGEYWGQGTQVTVSS | low polyreactivity |
| QVQLVESGGGLVQAGGSLRLSCAASGRWLYAMGWYIQAPAKERELVAAISRSGGSTNYADSVKGRFTISRDNAKNTVYLQMNSLKPEDTAVYYCATKYNADTRYDYWGQGTQVTVSS | low polyreactivity |
| QVQLVESGGGLVQAGGSLRLSCAASGSAYHYAMGWYSQAPGKERELVASITWRGDTTYYADSVKGRFTISRDNAKITVYLQMNSLKPEDTAVYYCAARKFFRQGGKRYDYWGQGTQVTVSS | high polyreactivity |
| QVQLVESGGGLVQAGGSLRLSCAASGSFFVDDAMGWYRQAPGKERELVATISSDVSTYYADSVKGRFTISRDNAKTTVYIQMNSLKPEDTAVYYCAATVSLHWAYSFSLYLEDDYWGQATQVTVSS | low polyreactivity |
| QVQLVESGGGLVQAGGSLRLSCAASGSIAYNAMGCYRQAPGKERELVASIRASGGRTYYADSVKGRFTISRDNAKNTVYLQMNSLKPEDTAVYYCAAYAYNAIEYGYWGQGTQVTVSS | low polyreactivity |
| QVQLVESGGGLVQAGGSLRLSCAASGSICAYAMGWYRQAPGKERELVASISTSTDITYADSVKGRFTISRDNAKNTVYLQMNSLKPEDTAVYYCAATYWQWWGWYDYWGQGTQVTVSS | high polyreactivity |
| QVQLVESGGGLVQAGGSLRLSCAASGSICDDYAMGWYRQAPGKEWELVAAISSSGTSTYYADSVKGRFTISRDNAMYTVYLQMNSLKPEDTAVYYCSARSAILISGYLMDYWGQGTQVTVSS | low polyreactivity |
| QVQLVESGGGLVQAGGSLRLSCAASGSICGWYVLGWYRQAPGKEMELVAAITWSAARTYYADSVKGRFTISRDNAKITVYLQMNSLKPEDTAVYYCAADHVSYQPSCRIFDYWGQGTQVTVSS | low polyreactivity |
| QVQLVESGGGLVQAGGSLRLSCAASGSICRSYAMGWYRQAPGKERELVASITRSYGSTYYADSVKGRFTISRDNAKNTVYLQMNSLKPEDTAVYYCNAVVSKSRRFRVDYWGHGTQVTVSS | high polyreactivity |
| QVQLVESGGGLVQAGGSLRLSCAASGSICVRNTMGWYRQAPGKERELVAAISSRGTSTYYADSVKGRFTISRDNAKNTVYLQMNSLKPEDTAVYYCAARVYPYNSWGQGTQVTVSS | high polyreactivity |
| QVQLVESGGGLVQAGGSLRLSCAASGSICYSNARGWYRQAPGKERELVAAISFTGGTTYNADSVKGRFTISRDNAKNTVYLQMNSLKPEDTAVYFCNKLYHHYYGYWGQGTQVTVSS | high polyreactivity |
| QVQLVESGGGLVQAGGSLRLSCAASGSIFAANTMGWYRQAPGKERELVATISWSSGRTRYADSVKGRFTISRDNAKNTVYLQMNSLKPEDTAVYYCAARYYYSRSRLYYYWGQGTQVTVSS | high polyreactivity |
| QVQLVESGGGLVQAGGSLRLSCAASGSIFAAYTMGWYRQAPGKERELVAAISVSTVSTYYADSVKGRFTISRDNAKNTVYLQMYSLKPEDTAVDYCNADATDSYPEKDEHDSWGQGTQVTVSS | low polyreactivity |
| QVQLVESGGGLVQAGGSLRLSCAASGSIFAAYTMGWYRQAPGKERELVATISSGGSTYYADSVKGRFTISRDNAKNTVYLQMNSLKPEDTAVYYCAAVIGNWQYQYYYWGQGTQVTVSS | low polyreactivity |
| QVQLVESGGGLVQAGGSLRLSCAASGSIFADNAMGWYRQAPGKERELVAAITWSGGSTYYADSVKGRFTISRDNAKNTVYLQMNSLKPEDTAVYYCNADDAVEYSYGGGTEFYYWGQGTQVTVSS | low polyreactivity |
| QVQLVESGGGLVQAGGSLRLSCAASGSIFADYAMGWYRQAPGKERELVAAITGSGGRTYYADSVKGRFTISRDNAKNTVYLQMNSLKPEDTAVYYCAVRHRYTRAYWGRDYWGQGTQVTVSS | low polyreactivity |
| QVQLVESGGGLVQAGGSLRLSCAASGSIFADYAMGWYRQAPGKERELVAGISGRGGRTYYADSVKGRFTISRDYAKNTVYLQMNSLKPEDTAVYYCAAKYNYYTWPTRYTATGYYYWGQGTQVTVSS | high polyreactivity |
| QVQLVESGGGLVQAGGSLRLSCAASGSIFADYVMGWYRQAPGKDRELVAAITRRGRTYYADSVKGRFTISRDNAKNTVYLQMNSLKPEDTAVYYCAKVGSGNIDSWGQGTQVTVSS | low polyreactivity |
| QVQLVESGGGLVQAGGSLRLSCAASGSIFADYVMGWYRRAPGKERELVAAITRRGRTYYADSVKGRFTISRDNAKNTVYLQMNSLKPEDTAVYYCAKVASGKIDSWGQGTQVTVSS | low polyreactivity |
| QVQLVESGGGLVQAGGSLRLSCAASGSIFAEYAMGWYRQAPGKERELVAAITTSGSTNYADSVKGRFTISRDNAKNTVYLQMNSLKPEDTAVYYCNALFQQRYLDSSGEYWGQGTQVTVSS | low polyreactivity |
| QVQLVESGGGLVQAGGSLRLSCAASGSIFAFYAMGWYRQAPGKERELVAAITASGGRTYYADSVKGRFTISRDNAKNTVYLQMNSLKPEDTAVYYCAAVGGATYSWNGTFLYDYDYWGQGTQVTVSS | low polyreactivity |

| Sequence | polyreactivity (PSR sort gate) |
| --- | --- |
| QVQLVESGGGLVQAGGSLRLSCAASGSIFAFYAMGWYRQAPGKERELVAVISASGGSTYYADSVKGRFISRDNAKNTVSLQMNSLKPEDTAVYYCAAGTSTNSGTVPEEEDYWGQGTQVTVSS | low polyreactivity |
| QVQLVESGGGLVQAGGSLRLSCAASGSIFAGNAMGWYRQAPGKERELVAAITWSGGSTYYADSVKGRFTISRDNAKNTVYLQMNSLKPEDTAVYYCAADPPGYVYGKRYYWGQGTQVTVSS | high polyreactivity |
| QVQLVESGGGLVQAGGSLRLSCAASGSIFAGNVMGWYRQAPGKERELVAAISRRGGRTYYADSVKGRFTISRDNAKNTVYLQMNSLKPEDTAVYYCAARRDPVLGKSDYWGQGTQVTVSS | high polyreactivity |
| QVQLVESGGGLVQAGGSLRLSCAASGSIFAGYAMGWYRQAPGKERELVAAISRSGGRTYYADSVKRRFTISRDNAKNTVNLQMNSLKPEDTAVYYCAAHRRSANDYDYWGQGTQVTVSS | high polyreactivity |
| QVQLVESGGGLVQAGGSLRLSCAASGSIFAHYTMGSYRQAPGKEREFVAAITKSGGRTYYADSVKGRFTISRDNAKNTVYLQMNSLKPEDTAVYYCARRRTIPYTLVDYDSWGQGTQVTVSS | low polyreactivity |
| QVQLVESGGGLVQAGGSLRLSCAASGSIFAINTMGWYRQAPGKERELVAAITSGGSTYYSDSVKGRFTISRDNAKNTVYLQMNSLKPEDTAVYYCAATPIGQHFTVDYWGQGTQVTVSS | low polyreactivity |
| QVQLVESGGGLVQAGGSLRLSCAASGSIFALYAMGWYRQAPGKERELVAAIDWSDGGTYYADSVKGRFTISRDNAKNTVYLQMNSLKPEDTAVYYCAADQYWDGYDFLYDYWGQGTQVTVSS | low polyreactivity |
| QVQLVESGGGLVQAGGSLRLSCAASGSIFALYAMGWYRQAPGKERELVAAISYRGGRTYYADSVKGRFTISRDNAKNTVYLQMYSLKPEDTAVYNCATDFPGKFDYWGQGTQVTVSS | low polyreactivity |
| QVQLVESGGGLVQAGGSLRLSCAASGSIFALYTMGWYRQAPGKERELVAAISRRGGKTYYADSVKGRFTISRDNAKNTVYLQMNSLKPEDTAVYYCNADRLRSTHDYWGQGTQVTVSS | high polyreactivity |
| QVQLVESGGGLVQAGGSLRLSCAASGSIFALYTMGWYRQAPGKEREMVAAISRRGGNKYYADSVKGRFTISRDNAKNTVYLQMNRLKPEDTAVYYCNADRLRSTHDYWGQGTQVSVSS | high polyreactivity |
| QVQLVESGGGLVQAGGSLRLSCAASGSIFAPNAMGWYRQAPGKERELVAAISRSGGRTYYADSVKGRFTISRDNAKNTVYFQMNSLKPEDTAVYYCAADYKHQRTYGSWGQGTQVTVSS | high polyreactivity |
| QVQLVESGGGLVQAGGSLRLSCAASGSIFAQYAMGWYRQAPGKERELVATISSVGSTNYADSVKGRFTISRDNAKNTVYLQMNSLKPEDTAVYYCAARYPVGRSPRAYEYWGQGTQVTVSS | low polyreactivity |
| QVQLVESGGGLVQAGGSLRLSCAASGSIFAQYGLGWYRQAPGKERELVADISGPGVSTYYADSVKGRFTISRDNAKNTVYLQMNSLKPEDSAVYYCAADYYYPYYWGQGTQVTVSS | low polyreactivity |
| QVQLVESGGGLVQAGGSLRLSCAASGSIFARYAMGWYRQAPGKERELVATISYRGSSTYYADSVKGRFKISRDNAKNTVYLQMNRLKPEDTAVYSCAARTYRRIYAYYRLDYWGQGTQVTVSS | low polyreactivity |
| QVQLVESGGGLVQAGGSLRLSCAASGSIFARYTMGWYRQAPGKERELVARITSSGGSTYYADSVKGRFTISRDNAKNTVYLQMNSLKPEDTAVYYCNKAYRYYWRMEYWGQGTQVTVSS | high polyreactivity |
| QVQLVESGGGLVQAGGSLRLSCAASGSIFASNSMGWYRQEPGQERELVAAINSGDSTNYADTVKGRFTISRDTAKNTVYLQMNSLKPEDTAVYYCARGLEERYDYWGQRTQVTVSS | low polyreactivity |
| QVQLVESGGGLVQAGGSLRLSCAASGSIFASYALGWYRQAAGKEREFVAAISQSGSRTYNADSVKGRFTISRDNANNTVSLHMNSLKPEDTAVYYCNAKRGTWNYDYWGQGTQVTVSS | high polyreactivity |
| QVQLVESGGGLVQAGGSLRLSCAASGSIFASYAMGWYRQAPGKERELVAAISRRAVRTYYADSVKGRFTISRDNAKNTVYLQMNSLKPEDTAVYYCNAASSLPGYDYWGQGTQVTVSS | high polyreactivity |
| QVQLVESGGGLVQAGGSLRLSCAASGSIFASYAMGWYRQAPGKERELVAAITRGGRTNYADSVKGRFTISRDNAKNTVYLQMNSLKPEDTAVYYCAKQYALVWRGYIYGYWGQGTQVTVSS | high polyreactivity |
| QVQLVESGGGLVQAGGSLRLSCAASGSIFASYAMGWYRQAPGKESELVAAITYSGSRTYYADSVKGRFTISRYNAKNTVYLQMNSMKPEDTAVYYCNADYYWYPYEDDYWGQGSQVTVSS | low polyreactivity |
